# Source: patent US7790384B2, “HIP1 cancer markers” (The Regents of the University of Michigan, priority 2001, dated 2010)
# B1: FLHIP1: wild type full length HIP1 expressed in cells (protein)
# chain: MDRMASSMKQVPNPLPKVLSRRGVGAGLEAAERESFERTQTVSINKAINTQEVAVKEKHARTCILGTHHEKGAQTFWSVVNRLPLSSNAVLCWKFCHVFHKLLRDGHPNVLKDSLRYRNELSDMSRMWGYLSEGYGQLCSIYLKLLRTKMEYHTKNPRFPGNLQMSDRQLDEAGESDVNNFSQLTVEMFDYLECELNLFQTVFNSLDMSRSVSVTAAGQCRLAPLIQVILDCSHLYDYTVKLLFKLHSCLPADTLQGHRDRFMEQFTKLKDLFYRSSNLQYFKRLIQIPQLPENPPNFLRASALSEHISPVVVIPAEASSPDSEPVLEKDDLMDMDASQQNLFDNKFDDIFGSSFSSDPFNFNSQNGVNKDEKDHLIERLYREISGLKAQLENMKTESQRVVLQLKGHVSELEADLAEQQHLRQQAADDCEFLRAELDELRRQREDTEKAQRSLSEIERKAQANEQRYSKLKEKYSELVQNHADLLRKNAEVTKQVSMARQAQVDLEREKKELEDSLERISDQGQRKTQEQLEVLESLKQELATSQRELQVLQGSLETSAQSEANWAAEFAELEKERDSLVSGAAHREEELSALRKELQDTQLKLASTEESMCQLAKDQRKMLLVGSRKAAEQVIQDALNQLEEPPLISCAGSADHLLSTVTSISSCIEQLEKSWSQYLACPEDISGLLHSITLLAHLTSDAIAHGATTCLRAPPEPADSLTEACKQYGRETLAYLASLEEEGSLENADSTAMRNCLSKIKAIGEELLPRGLDIKQEELGDLVDKEMAATSAAIETATARIEEMLSKSRAGDTGVKLEVNERILGCCTSLMQAIQVLIVASKDLQREIVESGRGTASPKEFYAKNSRWTEGLISASKAVGWGATVMVDAADLVVQGRGKFEELMVCSHEIAASTAQLVAASKVKADKDSPNLAQLQQASRGVNQATAGVVASTISGKSQIEETDNMDFSSMTLTQIKRQEMDSQVRVLELENELQKERQKLGELRKKHYELAGVAEGWEEGTEASPPTLQEVVTEKESQTNTPYVSVNPCYLSRVCYFPSHRPNPWSPRGSHTTAITQCRGHAHFQRLPPRHPFCLDPWISTASYGGWLGFLVLFFFFKFHSHSQLSQRAHPWGVSRAPQLWLQRWCCPGLSVLHLRLHTDQVLAHPVHAPGSGGAAEQLSSKSRRRVSAFPSSIPAESLCPPLQGRRQQKEGQEGSHSPVPVTRLKNLITCLNGAGEINNTTSLPETVREWSLSSGPSPLAQRRSVGVIPNSFLQTSALASSIGRSFHLLRNQTRKIRCNCSHQGRTLYLVCYPYLLLTSLKQQQPTKRCLEQSELQVLQSSSFCPATSAFKNQKKGQGAGLLLTWIPKQGDHLELLGQRKERTEPAAPTPFSHMPQALAALWTGGQRAHEQLARDGQPNSTFPLLDGPQHLSDLLILGKQRLPSLSIATHWWPSSTSEFLQPGRPLEHAXEGP
# modifications: X: residue not identified in the source
# notes: wild type full length HIP1 expressed in cells
# B2: HIP1/deltaE: dominant negative mutant of HIP1 lacking the ENTH domain (SEQ ID NO: 4) (protein, listed as Homo sapiens)
# chain: MFDYLECELNLFQTVFNSLDMSRSVSVTAAGQCRLAPLIQVILDCSHLYDYTVKLLFKLHSCLPADTLQGHRDRFMEQFTKLKDLFYRSSNLQYFKRLIQIPQLPENPPNFLRASALSEHISPVVVIPAEASSPDSEPVLEKDDLMDMDASQQNLFDNKFDDIFGSSFSSDPFNFNSQNGVNKDEKDHLIERLYREISGLKAQLENMKTESQRVVLQLKGHVSELEADLAEQQHLRQQAADDCEFLRAELDELRRQREDTEKAQRSLSEIERKAQANEQRYSKLKEKYSELVQNHADLLRKNAEVTKQVSMARQAQVDLEREKKELEDSLERISDQGQRKTQEQLEVLESLKQELATSQRELQVLQGSLETSAQSEANWAAEFAELEKERDSLVSGAAHREEELSALRKELQDTQLKLASTEESMCQLAKDQRKMLLVGSRKAAEQVIQDALNQLEEPPLISCAGSADHLLSTVTSISSCIEQLEKSWSQYLACPEDISGLLHSITLLAHLTSDAIAHGATTCLRAPPEPADSLTEACKQYGRETLAYLASLEEEGSLENADSTAMRNCLSKIKAIGEELLPRGLDIKQEELGDLVDKEMAATSAAIETATARIEEMLSKSRAGDTGVKLEVNERILGCCTSLMQAIQVLIVASKDLQREIVESGRGTASPKEFYAKNSRWTEGLISASKAVGWGATVMVDAADLVVQGRGKFEELMVCSHEIAASTAQLVAASKVKADKDSPNLAQLQQASRGVNQATAGVVASTISGKSQIEETDNMDFSSMTLTQIKRQEMDSQVRVLELENELQKERQKLGELRKKHYELAGVAEGWEEGTEASPPTLQEVVTEKESQTNTPYVSVNPCYLSRVCYFPSHRPNPWSPRGSHTTAITQCRGHAHFQRLPPRHPFCLDPWISTASYGGWLGFLVLFFFFKFHSHSQLSQRAHPWGVSRAPQLWLQRWCCPGLSVLHLRLHTDQVLAHPVHAPGSGGAAEQLSSKSRRRVSAFPSSIPAESLCPPLQGRRQQKEGQEGSHSPVPVTRLKNLITCLNGAGEINNTTSLPETVREWSLSSGPSPLAQRRSVGVIPNSFLQTSALASSIGRSFHLLRNQTRKIRCNCSHQGRTLYLVCYPYLLLTSLKQQQPTKRCLEQSELQVLQSSSFCPATSAFKNQKKGQGAGLLLTWIPKQGDHLELLGQRKERTEPAAPTPFSHMPQALAALWTGGQRAHEQLARDGQPNSTFPLLDGPQHLSDLLILGKQRLPSLSIATHWWPSSTSEFLQPGRPLEH
# System: cellular survival
# Assay: Effect of expression of HIP1 dominant negative mutant on cellular survival
# Assay type: cell-based
# Conditions: for induction of cell death: expression of construct
# Source text: The effect of expression of a HIP1 dominant negative mutant on cellular survival was next investigated. […] 39% of HIP1/DE-expressing cells and 50% of caspase 9-expressing cells were apoptotic. […] Expression of the endogenous HIP1, wild type HIP1, HIP1/DE and Caspase 9 was documented by Western blot analysis as shown in the bottom of FIG. 6b.
Molecule,"correction of HIP1 deltaE apoptosis (co-expression with HIP1 deltaE, FIG. 12 and 13)",induction of cell death (FIG. 6b),"apoptotic cells (cells expressing the construct, FIG. 6b)"
B1,correction of HIP1 deltaE apoptosis,did not induce cell death,–
B2,–,promoted cell death,39%
